Literature values in article PMC8463877.

Legend:
[1] = biological target: apoC-II fibrils (Homo sapiens) (UniProt P02655)
[2] = biological target: Aβ42 fibrils Aβ1-42 (Homo sapiens) (UniProt P05067)
Aβ42 fibrils Aβ1-42 (Homo sapiens), sequence (P05067 1-42): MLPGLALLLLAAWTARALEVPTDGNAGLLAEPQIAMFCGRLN

αB-crystallin, sequence (P02511 whole entry): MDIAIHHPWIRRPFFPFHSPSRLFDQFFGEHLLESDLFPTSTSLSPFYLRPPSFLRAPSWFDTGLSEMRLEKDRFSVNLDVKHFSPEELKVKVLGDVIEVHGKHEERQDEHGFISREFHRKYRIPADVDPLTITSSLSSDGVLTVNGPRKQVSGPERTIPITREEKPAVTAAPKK
apoC-II fibrils (Homo sapiens), sequence (P02655 23-101): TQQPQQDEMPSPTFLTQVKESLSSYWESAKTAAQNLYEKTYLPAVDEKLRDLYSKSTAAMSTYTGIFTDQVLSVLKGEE

αB-crystallin (from UniProt P02511)
Kd [1]: 5.4 µM
Kd [2]: 2.1 µM
